Measurements taken from publication PMC5548120.

Molecular target: T1, rat TRPV2 (transient receptor potential vanilloid 2), full-length, with a 1D4-tag (rat), Q9WUD2
T1 chain: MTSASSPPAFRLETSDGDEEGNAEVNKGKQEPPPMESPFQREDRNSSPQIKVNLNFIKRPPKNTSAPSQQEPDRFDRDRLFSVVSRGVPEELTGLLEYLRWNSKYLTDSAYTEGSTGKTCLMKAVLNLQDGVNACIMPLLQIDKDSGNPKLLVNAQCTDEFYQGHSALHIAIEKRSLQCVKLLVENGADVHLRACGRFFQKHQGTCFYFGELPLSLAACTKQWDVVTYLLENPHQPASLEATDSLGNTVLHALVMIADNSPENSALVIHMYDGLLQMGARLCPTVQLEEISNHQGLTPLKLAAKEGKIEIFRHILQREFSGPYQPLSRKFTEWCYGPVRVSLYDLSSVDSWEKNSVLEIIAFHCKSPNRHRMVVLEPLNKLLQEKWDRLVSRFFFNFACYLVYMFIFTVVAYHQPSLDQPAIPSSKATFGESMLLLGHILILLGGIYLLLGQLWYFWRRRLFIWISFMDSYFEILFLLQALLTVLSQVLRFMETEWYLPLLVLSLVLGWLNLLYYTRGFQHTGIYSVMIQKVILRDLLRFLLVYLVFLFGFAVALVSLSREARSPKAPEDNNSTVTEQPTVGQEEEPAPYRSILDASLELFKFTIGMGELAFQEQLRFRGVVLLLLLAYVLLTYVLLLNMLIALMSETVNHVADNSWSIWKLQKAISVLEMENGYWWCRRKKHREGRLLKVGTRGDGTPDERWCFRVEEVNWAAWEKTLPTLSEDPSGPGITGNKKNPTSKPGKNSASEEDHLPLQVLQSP
Assay: SEC + native gel or EMSA
Conditions: remark: other sources report otherwise

B1: rat TRPV2 (transient receptor potential vanilloid 2), full-length, with a 1D4-tag, Q9WUD2 1-761 (natural protein)
chain: MTSASSPPAFRLETSDGDEEGNAEVNKGKQEPPPMESPFQREDRNSSPQIKVNLNFIKRPPKNTSAPSQQEPDRFDRDRLFSVVSRGVPEELTGLLEYLRWNSKYLTDSAYTEGSTGKTCLMKAVLNLQDGVNACIMPLLQIDKDSGNPKLLVNAQCTDEFYQGHSALHIAIEKRSLQCVKLLVENGADVHLRACGRFFQKHQGTCFYFGELPLSLAACTKQWDVVTYLLENPHQPASLEATDSLGNTVLHALVMIADNSPENSALVIHMYDGLLQMGARLCPTVQLEEISNHQGLTPLKLAAKEGKIEIFRHILQREFSGPYQPLSRKFTEWCYGPVRVSLYDLSSVDSWEKNSVLEIIAFHCKSPNRHRMVVLEPLNKLLQEKWDRLVSRFFFNFACYLVYMFIFTVVAYHQPSLDQPAIPSSKATFGESMLLLGHILILLGGIYLLLGQLWYFWRRRLFIWISFMDSYFEILFLLQALLTVLSQVLRFMETEWYLPLLVLSLVLGWLNLLYYTRGFQHTGIYSVMIQKVILRDLLRFLLVYLVFLFGFAVALVSLSREARSPKAPEDNNSTVTEQPTVGQEEEPAPYRSILDASLELFKFTIGMGELAFQEQLRFRGVVLLLLLAYVLLTYVLLLNMLIALMSETVNHVADNSWSIWKLQKAISVLEMENGYWWCRRKKHREGRLLKVGTRGDGTPDERWCFRVEEVNWAAWEKTLPTLSEDPSGPGITGNKKNPTSKPGKNSASEEDHLPLQVLQSP
- stoichiometry N: 4
